According to US6783936:

Biological target: one CLL cell line
Test: avidity constant derived from LD50 of complement dependent cytotoxicity on CLL cells

Lym-1 antibody
avidity: 1.1e+08
